From PMC8665133 come the findings set out here.

For experiment [1], the target named is T1, Transmembrane domain peptide of AM2 (TM-AM2), wild type (influenza A virus (strain not stated)). The experiment can be described thus: native MS.
The target of experiment [2] is T1, Transmembrane domain peptide of AM2 …. Put plainly: native MS. This is another data set of the same source.

“And” between values parts separate entries of the source, which are not always exact repeats. Equal values may be shown once. Read-outs that look alike come from different tables or passages of the source.

One may read the stoichiometry N as a count of units in the complex or per binding partner. Consider SDPLVVAASIIGILHLILWIL (modifications not checked) [Transmembrane domain peptide of AM2 (TM-AM2), wild type], for which the stoichiometry N in experiment [1] was 6; in experiment [2], 2 and 4.
